Measurements published in patent publication US20210388087A1 (Chugai, published 2021).
Where a chain is given by its changes, count along the chain named. Numbers in names are those of the source.

B1: CE115HA000 Y58S (antibody, human IgG1, kappa, L234A L235A, N297A, name in Kabat numbering)
heavy: QVQLVESGGGVVQPGRSLRLSCAASGFTFSNAWMHWVRQAPGKGLEWVAQIKAKSNNYATSYAESVKGRFTISRDDSKNSLYLQMNSLKTEDTAVYYCRYVHYGAYYGVDAWGQGTTVTVSSASTKGPSVFPLAPSSKSTSGGTAALGCLVKDYFPEPVTVSWNSGALTSGVHTFPAVLQSSGLYSLSSVVTVPSSSLGTQTYICNVNHKPSNTKVDKKVEPKSCDKTHTCPPCPAPEAAGGPSVFLFPPKPKDTLMISRTPEVTCVVVDVSHEDPEVKFNWYVDGVEVHNAKTKPREEQYASTYRVVSVLTVLHQDWLNGKEYKCKVSNKALPAPIEKTISKAKGQPREPQVYTLPPSRCELTKNQVSLSCAVKGFYPSDIAVEWESNGQPENNYKTTPPVLDSDGSFFLVSKLTVDKSRWQQGNVFSCSVMHEALHNHYTQKSLSLSPDYKDDDDK
chain: EPKSSDKTHTCPPCPAPELLGGPSVFLFPPKPKDTLMISRTPEVTCVVVDVSHEDPEVKFNWYVDGVEVHNAKTKPREEQYNSTYRVVSVLTVLHQDWLNGKEYKCKVSNKALPAPIEKTISKAKGQPREPQVCTLPPSRDELTKNQVSLWCLVKGFYPSDIAVEWESNGQPENNYKTTPPVLDSDGSFFLYSKLTVDKSRWQQGNVFSCSVMHEALHNRYTQKSLSLSP
light: DIVMTQSPLSLPVTPGEPASISCRSSQSLVHSNRNTYLHWYQQKPGQAPRLLIYKVSNRFSGVPDRFSGSGSGTDFTLKISRVEAEDVGVYYCGQGTQVPYTFGQGTKLEIKRTVAAPSVFIFPPSDEQLKSGTASVVCLLNNFYPREAKVQWKVDNALQSGNSQESVTEQDSKDSTYSLSSTLTLSKADYEKHKVYACEVTHQGLSSPVTKSFNRGEC
notes: one-arm antibody
B2: CE115HA000 Y100aS (antibody, human IgG1, kappa, L234A L235A, N297A, name in Kabat numbering)
heavy: B1 heavy with S61Y, Y107S
chain: B1 chain
light: B1 light
notes: one-arm antibody
B3: CE115HA000 Y100aG (antibody, human IgG1, kappa, L234A L235A, N297A, name in Kabat numbering)
heavy: B1 heavy with S61Y, Y107G
chain: B1 chain
light: B1 light
notes: one-arm antibody
B4: CE115HA000 Y97R (antibody, human IgG1, kappa, L234A L235A, N297A, name in Kabat numbering)
heavy: B1 heavy with S61Y, Y103R
chain: B1 chain
light: B1 light
notes: one-arm antibody
B5: CE115HA000 Y97D (antibody, human IgG1, kappa, L234A L235A, N297A, name in Kabat numbering)
heavy: B1 heavy with S61Y, Y103D
chain: B1 chain
light: B1 light
notes: one-arm antibody
B6: CE115HA000 Y100S (antibody, human IgG1, kappa, L234A L235A, N297A, name in Kabat numbering)
heavy: B1 heavy with S61Y, Y106S
chain: B1 chain
light: B1 light
notes: one-arm antibody
B7: CE115HA000 Y100aQ (antibody, human IgG1, kappa, L234A L235A, N297A, name in Kabat numbering)
heavy: B1 heavy with S61Y, Y107Q
chain: B1 chain
light: B1 light
notes: one-arm antibody
B8: CE115HA000 Y100P (antibody, human IgG1, kappa, L234A L235A, N297A, name in Kabat numbering)
heavy: B1 heavy with S61Y, Y106P
chain: B1 chain
light: B1 light
notes: one-arm antibody
B9: CE115HA000 Y100aD (antibody, human IgG1, kappa, L234A L235A, N297A, name in Kabat numbering)
heavy: B1 heavy with S61Y, Y107D
chain: B1 chain
light: B1 light
notes: one-arm antibody
B10: CE115HA000 Y100D (antibody, human IgG1, kappa, L234A L235A, N297A, name in Kabat numbering)
heavy: B1 heavy with S61Y, Y106D
chain: B1 chain
light: B1 light
notes: one-arm antibody
B11: CE115HA000 Y100aL (antibody, human IgG1, kappa, L234A L235A, N297A, name in Kabat numbering)
heavy: B1 heavy with S61Y, Y107L
chain: B1 chain
light: B1 light
notes: one-arm antibody
B12: CE115HA000 Y100V (antibody, human IgG1, kappa, L234A L235A, N297A, name in Kabat numbering)
heavy: B1 heavy with S61Y, Y106V
chain: B1 chain
light: B1 light
notes: one-arm antibody
B13: CE115HA000 Y97S (antibody, human IgG1, kappa, L234A L235A, N297A, name in Kabat numbering)
heavy: B1 heavy with S61Y, Y103S
chain: B1 chain
light: B1 light
notes: one-arm antibody
B14: CE115HA000 Y59S (antibody, human IgG1, kappa, L234A L235A, N297A, name in Kabat numbering)
heavy: B1 heavy with S61Y, Y62S
chain: B1 chain
light: B1 light
notes: one-arm antibody
B15: CE115HA000 Y100G (antibody, human IgG1, kappa, L234A L235A, N297A, name in Kabat numbering)
heavy: B1 heavy with S61Y, Y106G
chain: B1 chain
light: B1 light
notes: one-arm antibody
B16: CE115HA000 Y97A (antibody, human IgG1, kappa, L234A L235A, N297A, name in Kabat numbering)
heavy: B1 heavy with S61Y, Y103A
chain: B1 chain
light: B1 light
notes: one-arm antibody
B17: CE115HA000 Y100A (antibody)
heavy: B1 heavy with S61Y, Y106A
Fc: B1 chain
light: B1 light
notes: one-arm antibody
B18: CE115HA000 Y100W (antibody, human IgG1, kappa, L234A L235A, N297A, name in Kabat numbering)
heavy: B1 heavy with S61Y, Y106W
chain: B1 chain
light: B1 light
notes: one-arm antibody
B19: CE115HA000 Y100aF (antibody, human IgG1, kappa, L234A L235A, N297A, name in Kabat numbering)
heavy: B1 heavy with S61Y, Y107F
chain: B1 chain
light: B1 light
notes: one-arm antibody
B20: CE115HA000 Y100aK (antibody, human IgG1, kappa, L234A L235A, N297A, name in Kabat numbering)
heavy: B1 heavy with S61Y, Y107K
chain: B1 chain
light: B1 light
notes: one-arm antibody
B21: CE115HA000 Y59A (antibody, human IgG1, kappa, L234A L235A, N297A, name in Kabat numbering)
heavy: B1 heavy with S61Y, Y62A
chain: B1 chain
light: B1 light
notes: one-arm antibody
B22: CE115HA000 Y100Q (antibody, human IgG1, kappa, L234A L235A, N297A, name in Kabat numbering)
heavy: B1 heavy with S61Y, Y106Q
chain: B1 chain
light: B1 light
notes: one-arm antibody
B23: CE115HA000 Y59E (antibody, human IgG1, kappa, L234A L235A, N297A, name in Kabat numbering)
heavy: B1 heavy with S61Y, Y62E
chain: B1 chain
light: B1 light
notes: one-arm antibody
B24: CE115HA000 Y100L (antibody, human IgG1, kappa, L234A L235A, N297A, name in Kabat numbering)
heavy: B1 heavy with S61Y, Y106L
chain: B1 chain
light: B1 light
notes: one-arm antibody
B25: CE115HA000 Y100K (antibody, human IgG1, kappa, L234A L235A, N297A, name in Kabat numbering)
heavy: B1 heavy with S61Y, Y106K
chain: B1 chain
light: B1 light
notes: one-arm antibody
B26: CE115HA000 Y97P (antibody, human IgG1, kappa, L234A L235A, N297A, name in Kabat numbering)
heavy: B1 heavy with S61Y, Y103P
chain: B1 chain
light: B1 light
notes: one-arm antibody
B27: CE115HA000 Y100aA (antibody)
heavy: B1 heavy with S61Y, Y107A
Fc: B1 chain
light: B1 light
notes: one-arm antibody
B28: CE115HA000 Y97G (antibody, human IgG1, kappa, L234A L235A, N297A, name in Kabat numbering)
heavy: B1 heavy with S61Y, Y103G
chain: B1 chain
light: B1 light
notes: one-arm antibody
B29: CE115HA000 Y59D (antibody, human IgG1, kappa, L234A L235A, N297A, name in Kabat numbering)
heavy: B1 heavy with S61Y, Y62D
chain: B1 chain
light: B1 light
notes: one-arm antibody
B30: dBBDu183H P61V / dBBDu072L (antibody, name in Kabat numbering, V domains shown)
VH: QVQLVESGGGLVQPGRSLRLSCAASGFTFSNAWMHWVRQAPGKGLEWVAQIKDKGNAYAAYYAVSVKGRFTISRDDSKNSIYLQMNSLKTEDTAVYYCHYVHYASASTVLPAFGVDAWGQGTTVTVSS
VL: DIVMTQSPLSLPVTPGEPASISCQASQELVHMNRNTYLHWYQQKPGQAPRLLIYKVSNRFPGVPDRFSGSGSGTDFTLKISRVEAEDVGVYYCAQGTSVPFTFGQGTKLEIK
notes: as m1, one VH change
B31: dBBDu183H A98E / dBBDu072L (antibody, name in Kabat numbering, V domains shown)
VH: B30 VH with V64P, A104E
VL: B30 VL
notes: as m1, one VH change

biological target: T1, CD3 epsilon homodimer protein (UniProt P07766 23-126); experiment: SPR, CD3 epsilon homodimer on chip, one-arm antibody as analyte;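 note: surface plasmon resonance at 25 °C with CD3 epsilon homodimer amine-coupled to a CM4 sensor chip, antibody injected as analyte, HBS-EP+ as running buffer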
T1 construct: also called CD3 (CD3 epsilon)
T1 sequence (P07766 23-126): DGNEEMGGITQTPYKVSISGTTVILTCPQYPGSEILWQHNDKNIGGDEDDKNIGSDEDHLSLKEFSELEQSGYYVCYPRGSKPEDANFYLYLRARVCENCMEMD

| Binder | KD ratio (KD of CE115HA000/KD of altered form) |
| --- | --- |
| B1 | 1.22 |
| B2 | 0.59 |
| B3 | 1.01 |
| B4 | 23200 |
| B5 | 65.7 |
| B6 | 0.7 |
| B7 | 0.51 |
| B8 | 1.3 |
| B9 | 1.2 |
| B10 | 0.63 |
| B11 | 0.57 |
| B12 | 0.92 |
| B13 | 1180 |
| B14 | 0.79 |
| B15 | 0.97 |
| B16 | 41300 |
| B17 | 0.92 |
| B18 | 0.96 |
| B19 | 0.98 |
| B20 | 0.79 |
| B21 | 0.74 |
| B22 | 0.77 |
| B23 | 0.61 |
| B24 | 0.67 |
| B25 | 0.93 |
| B26 | 12400 |
| B27 | 0.66 |
| B28 | 47200 |
| B29 | 0.66 |

biological target: T2, Human CD137 ECD (human); experiment: SPR, vs parent H183/L072
T2 construct: also called 4-1BB
T2 sequence (chain, as listed by the source limits assumed): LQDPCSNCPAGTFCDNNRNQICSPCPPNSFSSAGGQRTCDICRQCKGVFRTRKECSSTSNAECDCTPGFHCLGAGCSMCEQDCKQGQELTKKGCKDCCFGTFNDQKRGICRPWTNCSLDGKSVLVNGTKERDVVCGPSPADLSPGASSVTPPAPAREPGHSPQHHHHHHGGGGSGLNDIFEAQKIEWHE

| Binder | fold change of affinity |
| --- | --- |
| B30 | 0.6 fold |
| B31 | 0.3 fold |
